Measured values reported in the supplement of paper PMC10567573.
± gives the standard deviation.

Assay: protein stability index of a GFP-peptide fusion (GPS, HEK-293T) (PSI 1-6); higher = more stable
[1] = treatment: DMSO, c terminus: a fixed tail appended
[2] = treatment: MLN4924 1 uM, 8 h, c terminus: a fixed tail appended
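Also: 24-mer peptide tiles fused after GFP, lentivirally expressed, FACS-sorted into six equal bins by GFP/DsRed ratio, decoded by Illumina sequencing, PSI is the read-weighted mean bin number.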

Sequence | protein stability index [1] | protein stability index [2] | protein stability index (treatment: DMSO, c terminus: native) | protein stability index (treatment: MLN4924 1 uM, 8 h, c terminus: native)
MQSARGPTPSSPLPSVPVSVPASD [PLEKHN1] | 4.78 ± 0.28 | 4.79 ± 0.11 | – | –
MRKTSNSCIMENGHQPGTGPGDGP [SMTNL2] | 4.42 ± 0.064 | 4.55 ± 0.11 | – | –
MRNLKASLENSLREVEARYALQME [KRT18] | 3.22 ± 0.12 | 3.25 ± 0.38 | – | –
MRRMVATWMLEVCEEQKCEEEVFP [CCND2] | 2.9 ± 0.46 | 3.14 ± 0.045 | – | –
MRVDLRAGDEAVFAQYDSFHVDSA [TNXB] | 3.34 ± 0.56 | 3.22 ± 0.37 | – | –
MSDYRGFGIGSEILKNLSQVAMRC [SAT1] | 2.11 ± 0.48 | 2.46 ± 0.56 | – | –
MSHHPSGLRAGFSSTSYRRTFGPP [PRPH] | 2.92 ± 0.23 | 2.94 ± 0.1 | – | –
MSKQRERQLRRRALHPERAMDNHS [RETREG3] | 4.31 ± 0.17 | 4.44 ± 0.088 | – | –
MTTPAGSGSGFGSVSWWGLSPALD [DNAAF3] | 2.47 ± 0.29 | 2.75 ± 0.36 | – | –
MVFPAKRFCLVPSMEGVRWAFSCG [AASDHPPT] | 2.74 ± 0.79 | 2.77 ± 0.72 | – | –
MWLTPLHRAVASRSEEAVQVLIKH [ANKRD44] | 2.29 ± 0.12 | 2.45 ± 0.18 | – | –
NAEMKSAMRKLWSKKVSLAGKWLY [OR4A15] | 3.85 ± 0.63 | 2.8 ± 0.85 | – | –
NAGTGLVINQADVRNNRSIIKQLK [PLD5] | 3.88 ± 0.27 | 3.84 ± 0.11 | – | –
NARGMGIRSPRPASVATWAIFVHR [CTBP1-DT] | 2.16 ± 0.48 | 2.15 ± 0.37 | – | –
NDSDHQSSTSPLMEGTPTIKSKKK [VPS39] | 5.45 ± 0.26 | 5.57 ± 0.25 | – | –
NESLASLPLRVSFCPLSLWRWQLY [CLPTM1] | 2.45 ± 0.41 | 2.18 ± 0.4 | – | –
NEYLLNLVATNAHLDHYYQEELPA [FCHSD1] | 3.25 ± 0.11 | 3.27 ± 0.38 | – | –
NFLLFDMTTHPLTNNNIKQRLIKK [GOLPH3] | 2.62 ± 0.22 | 2.81 ± 0.25 | – | –
NGFPDSTGDPLPEISKDNSCKENC [EDARADD] | 5.2 ± 0.24 | 5.17 ± 0.48 | – | –
NHDSHMAKERAHSTASHSSSNSED [PDZK1] | 5.59 ± 0.17 | 5.61 ± 0.23 | – | –
NIQVTGSAALFYLTNSEYRSEQSV [ZER1] | 2.63 ± 0.24 | 2.84 ± 0.19 | – | –
NKQTLSSGEKYDPDANTWTALPPM [GAN] | 4.07 ± 0.39 | 4.03 ± 0.1 | – | –

Sequence | protein stability index [1] | protein stability index [2] | protein stability index (treatment: DMSO, c terminus: native) | protein stability index (treatment: MLN4924 1 uM, 8 h, c terminus: native)
NLESKSTIGVEFATRSIQVDGKTI [RAB11A] | 4.33 ± 0.19 | 4.27 ± 0.35 | – | –
NLFCVLRLVVEFPATGGAIPSWQI [PKD2L1] | 3.39 ± 0.28 | 3 ± 0.5 | – | –
NLINQMLTINPAKRITAHEALKHP [CAMK2B] | 2.38 ± 0.32 | 2.23 ± 0.12 | – | –
NLMSLLMAVRPSLPESGLLSVLQI [FANCE] | 3.09 ± 0.51 | 2.78 ± 0.55 | – | –
NLNREEKIIREIDFYREDEDEEEE [TRIM55] | 5.37 ± 0.15 | 5.3 ± 0.32 | – | –
NLPNLAAAYSSILSSLGENPQRQG [GCH1] | 3.03 ± 0.2 | 3.2 ± 0.43 | – | –
NLSRGQTPLTEGSEDLDGHSDPEE [RETREG3] | 5.65 ± 0.22 | 5.67 ± 0.15 | – | –
NPVQPIGPQTPKACDSKLTFDAIT [MMP1] | 4.21 ± 0.22 | 4.23 ± 0.22 | – | –
NQEYKMLLDIKTRLEQEIATYRSL [KRT13] | 2.58 ± 0.21 | 2.78 ± 0.19 | – | –
NQILMEKYLKLQDTCRTQLVWLVR [INTS3] | 2.02 ± 0.39 | 2.38 ± 0.31 | – | –
NQSFNIVDIKPANMEELTEVITAA [PPP2R2B] | 4.18 ± 0.26 | 4.26 ± 0.16 | – | –
NRSDHGIFHSRTSLQKLSTKLSAQ [FCHSD1] | 3.43 ± 0.25 | 3.67 ± 0.36 | – | –
NSISSDKEATVPCTEILTEKKDTI [MIA2] | 5.29 ± 0.28 | 5.06 ± 0.21 | – | –
NVCSLLAQTPLHVAAETGHTSTAR [RIPK4] | 3.67 ± 0.26 | 3.47 ± 0.27 | – | –
NVSTKEGIHLALVELLKNLTKYPT [INTS4] | 2.53 ± 0.36 | 2.5 ± 0.25 | – | –
NYFVTMFDDYSATLPLTLIVILEN [SLC6A17] | 3.05 ± 0.61 | 2.85 ± 0.62 | – | –
PAAGESLSGTRESLAQGPDAATTD [TBC1D10A] | 5.36 ± 0.32 | 5.29 ± 0.13 | – | –
PANVDASVMYRKWKESKGKDREYT [CDC34] | 4.16 ± 0.33 | 4.21 ± 0.13 | – | –
PAPGKLLGPCVVGYGIYYFIYSTW [SAT2] | 2.62 ± 0.65 | 2.92 ± 0.46 | – | –
PCHPTVKNWRNFASKWGMSYDELC [EDARADD] | 2.64 ± 0.28 | 2.54 ± 0.38 | – | –
PDLNILEDSAESRPWRAGVLAEGD [PSD2] | 4.87 ± 0.13 | 4.99 ± 0.14 | – | –
PDLNTLLWEAEDRQNVPRKVPNHY [CPXM2] | 3.87 ± 0.27 | 3.86 ± 0.092 | – | –

Sequence | protein stability index [1] | protein stability index [2] | protein stability index (treatment: DMSO, c terminus: native) | protein stability index (treatment: MLN4924 1 uM, 8 h, c terminus: native)
PDNWFCYPCIPNHELVWAKMKGFG [ZMYND11] | 2.43 ± 0.37 | 2.12 ± 0.18 | – | –
PDQVAPFTFLQPLPLSPGVLSSTP [ATF4] | 3.44 ± 0.33 | 3.74 ± 0.19 | – | –
PDSELSPCIPPGFRNLVADRVLNY [SPAG8] | 3.18 ± 0.23 | 3.34 ± 0.33 | – | –
PDTRHPCSLGSSLVADYSDSESE [YJU2B] | – | – | 5.39 ± 0.1 | 5.29 ± 0.13
PECGLAKKPPEESTCFERPCFKWY [ADAMTSL2] | 3.4 ± 0.42 | 2.96 ± 0.34 | – | –
PEGNILRDRFKSFQRRNMIEPRER [NOP53] | 4.25 ± 0.31 | 4.29 ± 0.36 | – | –
PESLTKPDQVAPFTFLQPLPLSPG [ATF4] | 4.21 ± 0.3 | 4.2 ± 0.12 | – | –
PFSSSSPENVEDSGLDSPSHAAPG [FCHO1] | 5.5 ± 0.19 | 5.4 ± 0.39 | – | –
PGCGYFCTAGNFMECQPESSISHR [EHMT1] | 2.64 ± 0.15 | 2.61 ± 0.53 | – | –
PGEKSHWGEGLHQLREALKILAER [EMID1] | – | 2.13 ± 0.33 | – | –
PGFLSTAEEETLSRELEPELRRRR [ALKBH7] | 5.12 ± 0.23 | 5.28 ± 0.3 | – | –
PGGLTLEEHSLEQVQSMVVGEVLK [SPDEF] | 3.34 ± 0.28 | 3.53 ± 0.38 | – | –
PGKLFIGGLNTETNEKALEAVFGK [RBMX] | 3.54 ± 0.35 | 3.69 ± 0.38 | – | –
PGNRTCTGTSKRYQLCRVQECPPD [ADAMTSL2] | 3.61 ± 0.32 | 3.69 ± 0.045 | – | –
PGPHSAKQDSYEQGDSSQQSLKGH [ZC2HC1C] | 5.24 ± 0.28 | 5.52 ± 0.082 | – | –
PGSIIGPQQHFLEEKQASLWVQGD [CDC14A] | 4.04 ± 0.37 | 4.14 ± 0.4 | – | –
PHKGLNLHPLLSGRLGRWLRSTRF [PCDHGC5] | 2.35 ± 0.23 | 2.13 ± 0.28 | – | –
PHTVLDRQLLCLIDYYESKIRKIH [CEP70] | 2.46 ± 0.34 | 2.28 ± 0.19 | – | –
PHYELCTLRGTGATADFADVADDF [NETO1] | 4.69 ± 0.1 | 4.59 ± 0.25 | – | –
PICSANHKESKMTIFEKENFIGRQ [CRYBA1] | 3.34 ± 0.27 | 3.46 ± 0.18 | – | –
PILKVQYHPRDQNKVLVCPMKSAP [RBBP5] | 2.99 ± 0.17 | 3.13 ± 0.14 | – | –
